These results are taken from the supplement of paper PMC12764529.

Data set [1] can be described thus: folding stability dG unfold from trypsin proteolysis; higher = more stable. A digest of the protocol: (§1)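 Bayesian fitting of sequencing counts gave K50 for each design. Unfolding free energy followed by setting this against a sequence-predicted unfolded-state K50 and a shared folded-state K50, either per protease or with trypsin and chymotrypsin combined. The designs, under 80 residues and lacking cysteine, were digested in a PA-tagged cDNA display format at 11 threefold-diluted protease concentrations and without protease, and only those with AlphaFold2 dimer inter-PAE above 15 were kept.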

Data set [2] in a line: folding stability dG unfold (combined trypsin and chymotrypsin); higher = more stable. A digest of the protocol:
as §1

Data set [3] can be described thus: folding stability dG unfold from chymotrypsin proteolysis; higher = more stable. The procedure, abridged: as §1

± gives the half width of the 95% confidence interval.

As to “SAGGSADNLMFMFEFEFSFEWSNPDGEPMTMEVPITVMIPIPIPVPKATPEAMKDPEKAKEAQEEASAGGSA [r15_728_TrROS]”, the “folding stability dG unfold” value was determined as 10 ± 0.92 kJ/mol in data set [1], 14.2 ± 1.34 kJ/mol in data set [2] and 14.7 ± 0.795 kJ/mol in data set [3].

In the case of “SAGGSADNTDVKTEVVGFRLPGYEGLNFLINIQPKDKPKTIFASEAELPLFEEAGIPVVFTSSLPLSAGGSA [r15_783_TrMRF]”, the “folding stability dG unfold” value in data set [1] is -0.627 ± 1.21 kJ/mol; in data set [2], -0.55 ± 1 kJ/mol; in data set [3] it was -0.183 ± 1.8 kJ/mol.

For the sequence “SAGGSADYYLIVIEIEKNGKKYKIVLVVSKEDLKKLEEEIKKKFPDVKIKIKVIKFPSKEEALKALSAGGSA [r15_889_TrROS_Hall]”, the “folding stability dG unfold” value in data set [1] was 12.4 ± 0.418 kJ/mol; in data set [2] it was 14.5 ± 0.502 kJ/mol; in data set [3], 15.6 ± 0.226 kJ/mol.

On to “SAGGSAEEDEVVTIRAVLENGEVRELEVKLPEGTRIYIPGTGEVREVPFGDEVPVPANSDLLVEPVSAGGSA [r15_152_TrMRF]”, for which the “folding stability dG unfold” value is -0.443 ± 0.544 kJ/mol in data set [1], -3.43 ± 2.59 kJ/mol in data set [2] and -2.69 ± 1.05 kJ/mol in data set [3].

As for “SAGGSAEEEEARRLAEELARRLEEEGYEIERVEVRVERLPDGTVRITVRVYRKDGKPVLELEITLPSAGGSA [r15_232_TrROS_Hall]”, the “folding stability dG unfold” value in data set [1] is 19 ± 0.795 kJ/mol; in data set [2] it was 20.8 ± 0.46 kJ/mol; in data set [3], 20.9 ± 0.753 kJ/mol.

As for “SAGGSAEEEVYRVRVTVTYRNPETGEVVEEVELVIEVEKGKTVEEVARELAKKLNVDRVEVELVPPSAGGSA [r15_540_TrROS_Hall]”, the “folding stability dG unfold” value in data set [1] is 15.3 ± 0.46 kJ/mol; in data set [2] it was 17.9 ± 0.418 kJ/mol; in data set [3] it was 18.9 ± 0.381 kJ/mol.

Take “SAGGSAEFKIEAEVLSKEVNPETGKPVVKVKIKIEKYNPETGKKEEKEIELELSEEELEKLLKELGSAGGSA [r2_357_TrMRF]”: the “folding stability dG unfold” value in data set [1] stood at 15.1 ± 0.962 kJ/mol; in data set [2], 13.1 ± 0.544 kJ/mol; in data set [3], 12.2 ± 0.335 kJ/mol.

In the case of “SAGGSAEIVIVESPQQVREAAEPENPDGPPVKVIPMTYEEAKNEIRELKKKGKPMKIVIVIDPGTPSAGGSA [r15_567_TrROS]”, the figures for the “folding stability dG unfold” value in data set [1], in data set [2] and in data set [3] were -2.29 ± 1.72 kJ/mol, -1.8 ± 2.72 kJ/mol and -0.698 ± 1 kJ/mol, respectively.

Regarding “SAGGSAEKPEIGAEIVTYKDKDKPLYIVAVPFFDENGNLVGVLVKEFDNPEEAKEFLEALGFGKIESAGGSA [r15_127_TrMRF]”, the “folding stability dG unfold” value in data set [1] came to 6.48 ± 0.586 kJ/mol; in data set [2] it was 6.54 ± 0.502 kJ/mol; in data set [3], 7.02 ± 0.159 kJ/mol.

Turning to “SAGGSAEKPPYVIRLEITVKGPGKKVKLDILVDSPEELEAVIQALKDLGFTDIEPKIETFPLEELDSAGGSA [r15_1015_TrMRF]”, the “folding stability dG unfold” value in data set [1] is 6.81 ± 0.502 kJ/mol; in data set [2] it was 9.12 ± 0.711 kJ/mol; in data set [3], 10.1 ± 0.46 kJ/mol.

For the sequence “SAGGSAEKPVKIHLMYNPDYYYVRIRNNGGPQSFMFKPDMDIEEIANNFPPGIDEIEIHPMPPEAFSAGGSA [r15_1058_TrROS]”, the results for the “folding stability dG unfold” value in data set [1], in data set [2] and in data set [3] were 1.05 ± 0.586 kJ/mol, 1.76 ± 0.418 kJ/mol and 2.06 ± 0.414 kJ/mol, respectively.

Regarding “SAGGSAENKTIKITFTFKNAKNAIFTINVEKGNKTYKITFNLSDNQELNIEVDYNNTKVSFSIYPASAGGSA [r15_414_TrMRF]”, the “folding stability dG unfold” value in data set [1] amounted to 16.5 ± 2.01 kJ/mol; in data set [2], 19.8 ± 1.8 kJ/mol; in data set [3] it was 22.4 ± 0.879 kJ/mol.

Take “SAGGSAEPIGTLTLSFPVKVKVKDADGSIHEYDVTITVTPTVYRLPNGDLVVGLDVEIVFPDGSSLPGSAGG [r13_113_TrMRF]”: the “folding stability dG unfold” value in data set [1] was 13 ± 0.418 kJ/mol; in data set [2] it was 17.4 ± 0.276 kJ/mol; in data set [3], 18.5 ± 0.272 kJ/mol.

Turning to “SAGGSAERVLIEAESLEEAKAALEELGVTRVEEREVDGKRYLILVDLDDPEKIEVFSREELEKLLKSAGGSA [r15_11_TrROS_Hall]”, the “folding stability dG unfold” value in data set [1] was determined as 3.91 ± 0.142 kJ/mol; in data set [2] it was 6.47 ± 0.347 kJ/mol; in data set [3] it was 7.45 ± 0.389 kJ/mol.

Turning to “SAGGSAETIEIEIKVKTEEEREKLKEALKKIPSIKEVKELPDGTIKITVSKENLDKIKEALKKAGVSAGGSA [r15_834_TrROS_Hall]”, the “folding stability dG unfold” value in data set [1] was determined as 14.1 ± 1.42 kJ/mol; in data set [2], 13.8 ± 2.72 kJ/mol; in data set [3] it was 9.42 ± 1 kJ/mol.

On to “SAGGSAETKTVVIEVKLPEELKGLSAEELAALLAEELAKKPGVKEVTVTVERDEETDTLRVTITYPSAGGSA [r15_1029_TrROS_Hall]”, for which the entries for the “folding stability dG unfold” value in data set [1], in data set [2] and in data set [3] were 13.4 ± 0.209 kJ/mol, 13.1 ± 0.176 kJ/mol and 12.3 ± 0.18 kJ/mol, respectively.

“SAGGSAETTKDPNKPVETISTPGTLIKITKYPDSYNATIEPLDENGNVTGSESGPIKSIEEVLRQLSAGGSA [r15_288_JUSTAS]”: the “folding stability dG unfold” value in data set [1] was -2.57 ± 0.669 kJ/mol; in data set [2], 0.904 ± 0.502 kJ/mol; in data set [3], 2.5 ± 0.28 kJ/mol.

Turning to “SAGGSAETVVVRIEVRDPETGETLELEIEVRRDMTEEELRELAEELARALKEAGYEVRVEVVRLPPSAGGSA [r15_268_TrROS_Hall]”, the “folding stability dG unfold” value turned out to be 13 ± 0.305 kJ/mol in data set [1], 10.9 ± 0.381 kJ/mol in data set [2] and 9.45 ± 0.46 kJ/mol in data set [3].
